# Data: patent publication US20250034594A1, “RNA-GUIDED GENOME RECOMBINEERING AT KILOBASE SCALE” (THE BOARD OF TRUSTEES OF THE LELAND STANFORD JUNIOR …, priority 2021, published 2025)
# B1: SSAP_287: SEQ ID NO: 456; Leifsonia xyli subsp. xyli str. CTCB07 (protein, listed as Leifsonia xyli)
# chain: AVKKNPTIEDYLIKYEPEFQRALGASMDAAKFAQDALTAIKQNPKIGHSDPRSLFGALFLAAQLKLPVGGPLAQFHLTTRTVKGNLTVVPIVGYGGYVQLIMNTGLYSRVSAFLIHAGDYFVTGANSERGEFYDFRRADSDRGEVKGVIAYAKVKGHNESSWVYIDAETMRAKHRPKYWESTPWADDAGEMFKKTGIRVLQKYLPKSVESLNVALAASADQAIVRKVDGVPDLDIQHDRDTETVAVPEQPVSVPQPGDET
# B2: SSAP_295: SEQ ID NO: 464; Pseudoalteromonas (multispecies) (protein, listed as Pseudoalteromonas sp.)
# chain: SLSLQEYQNLLYGKLTACKGQFDACLSENGYKLDFNTELNYVYQIVMSGLNVEYSFPYTPVESVITSFLKAAKIGLSLCPTEQLCFLKTEYSESSGQYVTQLGLGYKGILKLAYRSGKVKQINANVFYEKDNFQYNGVNSKVTHTTTVLSKAMRGQLAGGYCQTELIDGSFKTTVMPPEEILAIEEQGKAMGNEAWLSVHVDQMREKTLIKRHWKTLCPCIYRDSVMNDPMLFDDQDCQHSSNQQAYEEQFESAYSREAY
# B3: SSAP_162: SEQ ID NO: 331; Helcococcus sueciensis (protein, listed as Helcococcus sueciensis)
# chain: AQAKELLENKTNNTVKKSEKQTMENLLTLMADEIKKALPENVKSERFRRIALTAFNGNKDLQQCEPTSFLAAMMQSAQLGLEPNTPLGQAYLIPYNNSKKNIKEVQFQVGYKGMLDLAHRTNQYKNIQANIVYEKDEFDIEYGLNPKLKHIPNMKEDRGQAIGYYAVYNLINGGQGFEYMTRAEVEKHAQKFSKTYRNGPWQTDFDEMAKKTVLKKVLKYAPMSTELQEATAIDERVVNEENIKSKNEDKFVDVDWSYVDDVEEDVIE
# B4: SSAP_203: SEQ ID NO: 372; Oenococcus oeni (protein, listed as Oenococcus oeni)
# chain: SNELKTILNAPTTKEKFDEVLGRNAQGYINSVLNAVGNSKLLQNASPNSILSGAMKAATLNLSIDPNLGYAYFVPYGHEAQLQIGYQGLIQLAQRSGQIKILNAAPIYDEQFKSLDPVTGKLTLNKKIVPDTNKKPTGYVAYLKTVTGFEHTEFMSYADIEKFAKRFSKSFNSSTSPWKTDFNAMAKKTLIKQVLKYAPMSIDLQTAVSADNDDIEPKDITPDEDKETVDKISNLISDNKQDDTLSQLEEVANANN
# B5: SSAP_276: SEQ ID NO: 445; Oceanobacillus sp. Castelsardo (protein, listed as Oceanobacillus sp.)
# chain: ATNSTLKNQISNKKQGNNQVGKTQGTTMKQLLASPAVMNRFEEVLGKRANQFTASILGLYNSEKMLQKAEPMSVISSAMIAATLDLPVDKNLGYAWIVPYGGKAQFQMGYKGYIQLALRTGQYRNINVIEVYEGELKKWDRLTEEIELDFESRTSDKVIGYTGYFELINGFRKTVYWSKEDVEKHKKRFSKSDFGWKNDWDAMARKTVIRNMLNKWGILSIDMQKGMVEDSKDPVEVNEEFSSDVIDADYEVVGENEQQDFTVEENA
# B6: SSAP_155: SEQ ID NO: 324; Staphylococcus nepalensis (protein, listed as Staphylococcus nepalensis)
# chain: ATQNQFKNQLTQKKENNNQPQQKAVGPKQEISNLLDRMAPQIQKALPQHMSAERMARIAMTAVSSTPKLLECDPKSLIGALMQSSQIGLEPNTNLGQAYLIPYGKEVQLQVSYLGMIELANRSKQYKAIYAHEVYPEDYFEYQYGLQKDLIHKPADNPQSEPIGYYAVYHLLNGGYDFVYWSKAKIDDHARQFSKAVQKGWQSPWKTNFNAMAKKTVLKDLLKFAPKSIEMNNAVSSDSKAQQIDDDGNIIDVTDYSQVNDEPEQLQEGQ
# B7: SSAP_224: SEQ ID NO: 393; Clostridium tyrobutyricum (protein, listed as Clostridium tyrobutyricum)
# chain: SDKKMVVLGESHKALSKLLETKQEALPKDFNKARFLQNCMTVLQDTKDIDKCQPISVARTMLKGAFLGLDFFNRECYAIPYGGNLQFQTDYKGEIKLAKKYSFNSIKDIYAKIVREGDDFQESIEDGRQTINFKPLPFNNGEIIGAFAVCLFQDGSMLYETMTKQEIEDIRNNFSKAKNSPAWVKTPGEMYKKTVLRRLCKLIELDFDSVETKKTYDETSEFEFGSANHEVSNFDKDDSNIIEADAEIQDDVQEGDGEDE
# B8: SSAP_263: SEQ ID NO: 432; Gulosibacter molinativorax (protein)
# chain: TDLTEKIATKAVAVKKDPKIADLMKSYEPQFARSLGKSMDAAKFGQDALTAIKQTPKLLEADQRSLFGAIFLAAQLKLPVGGPLAQFHLTPRKVAGEMTVVPIIGYNGYIQLAMNTGLYSKVGAFTVHANDHFRTGANSERGEFYDYERATGDRGELTGVIGYAKVKGFDESSFVYLDAATVRERHRPKFWDKTPWASDEGEMFRKTAIRVLQKYLPKSIEAAPLALAAQADQATVRRVDGVDDLQIDHEDIAIAEVIEDD
# modifications: Gulosibacter molinativorax
# B9: SSAP_142: SEQ ID NO: 311; Roseburia intestinalis (protein, listed as Roseburia intestinalis)
# chain: GDIRSELAKKAEQTQGNTKLTKSMSIADLIKAMEPEIQKALPSVITPERFTRMALSALNTTPKLQECTPMSFLAALMNAAQLGLEPNTPLGQAYLIPYKNKNVLECQFQLGYRGMIDLAYRNGHMQSIEAQAVYENDVFSYALGLHPELVHKPTLEEKGALKAFYAIFRLDNGGFRFEVMGKTYIDWYANRYSKAFTSEFSPWKSNYEGMAKKTVIKQLLKYAPLKTEFQRALSTDETIKNSLNVDMGEVLSEDIIDMPCEEVA
# System: gene editing with Cas9 and dCas9
# Assay: Screen of 322 new SSAP proteins, activity across all experiments (Cas9 and dCas9, Table 5)
# Format: cell-based
# Set-up: scale not given here
# Conditions: not given
# Method in brief: (§1)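 The 322 SSAP proteins were found in sequence data and then synthesized. Each was screened for gene editing activity when paired with Cas9 and with dCas9.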
row,Molecule,Activity across all experiments
1,B1,−0.980
2,B2,−2.188
3,B3,−0.900
4,B4,−2.400
5,B5,−2.301
6,B6,−2.122
7,B7,0.449
8,B8,−1.635
9,B9,−0.974

# System: gene editing with Cas9
# Assay: Screen of 322 new SSAP proteins, gene editing activity with Cas9 (Table 5)
# Format: cell-based
# Set-up: Cas9 with SSAP activity: scale not given here
# Conditions: not given
# Method in brief: as §1
row,Molecule,Cas9 with SSAP activity
1,B1,0.085
2,B2,−2.337
3,B3,0.273
4,B4,−2.670
5,B5,−2.551
6,B6,−2.139
7,B7,3.010
8,B8,−1.201
9,B9,0.197

# Same assay, conditions: normalized
row,Molecule,Cas9 with SSAP activity (normalized)
1,B1,0.091
2,B2,−0.343
3,B3,0.278
4,B4,−0.476
5,B5,−0.452
6,B6,−0.908
7,B7,2.232
8,B8,−0.666
9,B9,0.073

# System: gene editing with dCas9
# Assay: Screen of 322 new SSAP proteins, gene editing activity with dCas9 (Table 5)
# Format: cell-based
# Set-up: dCas9 with SSAP activity: scale not given here
# Conditions: not given
# Method in brief: as §1
row,Molecule,dCas9 with SSAP activity
1,B1,−2.044
2,B2,−2.038
3,B3,−2.073
4,B4,−2.129
5,B5,−2.052
6,B6,−2.105
7,B7,−2.113
8,B8,−2.069
9,B9,−2.145

# Same assay, conditions: normalized
row,Molecule,dCas9 with SSAP activity (normalized)
1,B1,−1.493
2,B2,−0.267
3,B3,−1.380
4,B4,−0.311
5,B5,−0.337
6,B6,−0.826
7,B7,−0.351
8,B8,−0.685
9,B9,−1.216
